Measurements reported in patent publication US20250092133A1 (Amgen, published 2025).

T1: Hu CDH3 Dom2 mu (aa 216-327), human/mouse chimeric CDH3 on CHO cells (chimeric hu/mu)
T1 chain: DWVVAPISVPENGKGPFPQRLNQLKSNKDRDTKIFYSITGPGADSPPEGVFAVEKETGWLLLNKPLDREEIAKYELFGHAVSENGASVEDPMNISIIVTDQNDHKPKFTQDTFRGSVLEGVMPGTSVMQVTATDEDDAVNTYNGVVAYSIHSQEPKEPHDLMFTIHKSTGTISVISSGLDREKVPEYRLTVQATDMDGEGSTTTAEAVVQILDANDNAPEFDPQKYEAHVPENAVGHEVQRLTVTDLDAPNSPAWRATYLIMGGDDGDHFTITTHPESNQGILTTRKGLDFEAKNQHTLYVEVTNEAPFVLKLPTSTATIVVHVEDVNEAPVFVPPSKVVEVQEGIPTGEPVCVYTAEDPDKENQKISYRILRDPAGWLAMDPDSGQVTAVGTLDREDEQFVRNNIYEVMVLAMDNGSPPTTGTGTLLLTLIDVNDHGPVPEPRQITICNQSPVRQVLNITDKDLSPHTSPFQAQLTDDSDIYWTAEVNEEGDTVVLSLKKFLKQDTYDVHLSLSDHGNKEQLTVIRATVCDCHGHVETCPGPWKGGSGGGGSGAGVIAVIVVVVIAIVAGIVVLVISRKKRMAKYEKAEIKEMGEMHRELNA

T2: Hu CDH3 Dom1B mu (aa 144-179), human/mouse chimeric CDH3 on CHO cells (chimeric hu/mu, UniProt P22223 108-681 (human entry))
T2 chain: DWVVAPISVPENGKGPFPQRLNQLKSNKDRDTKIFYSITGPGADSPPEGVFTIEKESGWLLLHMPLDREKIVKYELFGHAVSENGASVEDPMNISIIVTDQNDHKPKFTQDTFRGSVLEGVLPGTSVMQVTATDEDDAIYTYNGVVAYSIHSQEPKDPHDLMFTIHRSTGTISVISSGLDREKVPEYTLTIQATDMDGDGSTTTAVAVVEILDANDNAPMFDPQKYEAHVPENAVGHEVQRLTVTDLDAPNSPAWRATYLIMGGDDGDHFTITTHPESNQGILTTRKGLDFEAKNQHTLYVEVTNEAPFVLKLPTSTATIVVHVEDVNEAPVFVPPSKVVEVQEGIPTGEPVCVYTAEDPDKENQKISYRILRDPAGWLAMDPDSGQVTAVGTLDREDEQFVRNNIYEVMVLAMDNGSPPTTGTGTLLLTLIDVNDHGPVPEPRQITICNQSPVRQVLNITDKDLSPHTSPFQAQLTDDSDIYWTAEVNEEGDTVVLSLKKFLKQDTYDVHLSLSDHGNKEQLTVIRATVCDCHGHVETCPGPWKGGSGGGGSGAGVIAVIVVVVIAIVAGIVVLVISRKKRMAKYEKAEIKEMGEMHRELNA

T3: Hu CDH3 Dom1 mu (aa 108-215), human/mouse chimeric CDH3 on CHO cells (chimeric hu/mu)
T3 chain: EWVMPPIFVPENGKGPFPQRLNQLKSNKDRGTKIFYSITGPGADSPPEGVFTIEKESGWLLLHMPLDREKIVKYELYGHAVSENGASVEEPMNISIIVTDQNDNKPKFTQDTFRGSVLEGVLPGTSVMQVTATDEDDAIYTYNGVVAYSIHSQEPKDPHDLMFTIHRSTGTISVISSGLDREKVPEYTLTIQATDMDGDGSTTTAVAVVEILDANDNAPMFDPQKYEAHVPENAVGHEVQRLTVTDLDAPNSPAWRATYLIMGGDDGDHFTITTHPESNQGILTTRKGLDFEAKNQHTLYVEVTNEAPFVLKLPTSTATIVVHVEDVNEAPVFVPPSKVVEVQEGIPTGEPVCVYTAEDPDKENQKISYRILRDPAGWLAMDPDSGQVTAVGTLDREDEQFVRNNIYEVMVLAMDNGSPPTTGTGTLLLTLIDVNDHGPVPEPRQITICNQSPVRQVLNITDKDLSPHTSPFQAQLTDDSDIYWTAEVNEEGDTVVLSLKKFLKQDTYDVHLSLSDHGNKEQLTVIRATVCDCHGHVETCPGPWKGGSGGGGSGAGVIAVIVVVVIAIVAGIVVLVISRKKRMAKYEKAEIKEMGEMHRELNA

T4: murine CDH3 on cells (mouse, UniProt P10287 100-822)
T4 construct: negative control; also called mouse CDH3
T4 sequence: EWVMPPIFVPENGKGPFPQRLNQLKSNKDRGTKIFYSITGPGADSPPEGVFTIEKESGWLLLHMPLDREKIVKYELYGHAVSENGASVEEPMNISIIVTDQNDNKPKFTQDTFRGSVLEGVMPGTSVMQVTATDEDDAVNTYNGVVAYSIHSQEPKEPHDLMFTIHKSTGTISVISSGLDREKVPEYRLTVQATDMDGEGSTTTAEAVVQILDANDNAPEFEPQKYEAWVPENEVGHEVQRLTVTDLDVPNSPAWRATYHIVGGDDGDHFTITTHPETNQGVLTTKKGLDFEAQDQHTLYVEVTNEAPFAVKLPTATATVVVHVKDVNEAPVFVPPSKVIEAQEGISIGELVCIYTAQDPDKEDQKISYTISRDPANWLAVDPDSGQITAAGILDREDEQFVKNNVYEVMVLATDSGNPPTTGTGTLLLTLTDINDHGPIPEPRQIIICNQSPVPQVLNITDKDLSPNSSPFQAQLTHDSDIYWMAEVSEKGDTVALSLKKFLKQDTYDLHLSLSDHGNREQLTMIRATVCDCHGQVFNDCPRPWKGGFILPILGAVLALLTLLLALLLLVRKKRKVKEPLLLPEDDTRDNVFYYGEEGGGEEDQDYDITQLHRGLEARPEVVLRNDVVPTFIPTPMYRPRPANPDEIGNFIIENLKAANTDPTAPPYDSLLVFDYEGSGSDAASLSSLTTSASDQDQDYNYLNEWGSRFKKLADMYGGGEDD


Legend:
[1] = biological target: T1, Hu CDH3 Dom2 mu (aa 216-327), …; test: flow cytometry, transfected CHO cells; crude undiluted periplasmic scFv extract; anti-FLAG M2 + anti-mouse IgG Fcγ-PE; control PBS/2% FCS
Experimental: (§1) Cells transfected with human or murine CDH3, or with the chimeric human/mouse CDH3 molecules (see Example 1) were stained with crude, undiluted periplasmic extract containing scFv binding to human/macaque CDH3. […] As negative control, cells were incubated with PBS/2% FCS instead of the periplasmic extract. The samples were measured by flow cytometry.

[2] = biological target: T2, Hu CDH3 Dom1B mu (aa 144-179), …; test: flow cytometry, transfected CHO cells; crude periplasmic scFv extract; anti-FLAG M2 + anti-mouse IgG Fcγ-PE
Experimental: as §1

[3] = biological target: T3, Hu CDH3 Dom1 mu (aa 108-215), …; test: as above
Experimental: as §1

murine CDH3 on cells = biological target: T4, murine CDH3 on cells; test: as above
Experimental: as §1

binding result [1]	binding result [2]	binding result [3]	binding result (murine CDH3 on cells)	Binder
binds	no binding	no binding	no binding	CDH3-10 scFv (scFv) scFv: EVQLVEESGGGLVKPGGSLKLSCAASGFTFSSYAMSWVRQTPDKRLEWVATISSGGHYTYYPDSVKGRFTISRDNAKNTLYLQMSSLKSEDTAMYYCASYYYGIPFGYWGQGTTVTVSSGGGGSGGGGSGGGGSELVMTQSPSSLSASLGEGVSLTCRASQDIGINLIWLRQEPDGTIKRLIYDTSSLDSGVPKRFSGSRSGSDYSLTISSLESEDFVHYYCLQYGSSPLTFGAGTKLEIK
binds	no binding	no binding	no binding	CDH3-9 (scFv, Used as crude periplasmic extract and detected through a FLAG tag; also called CDH3-9 scFv) scFv: EVQLVEESGGDLVKPGGSLKLSCAASGFTFSTYGMSWVRQTPDKRLEWVATISSGGHYSYYPDSVKGRFTISRDNAKNTLYLQMSSLKSEDTAMYYCASYYYGSPFAYWGQGTTVTVSSGGGGSGGGGSGGGGSELQMTQSPSSLSASLGERVSLTCRASQDIGSSLNWLQQKPDGTIKRLIYDTSSLDSGVPKRFSGSRSGSDYSLTISSLESEDFGDYYCVQYGSSPLTFGAGTKLEIK
binds	no binding	no binding	no binding	CDH3-8 (scFv, Used as crude periplasmic extract and detected through a FLAG tag; also called CDH3-8 scFv) scFv: EVQLVEQSGAEVVKPGASVKITCKASGYAFSSYWMNWVRQRPGKGLEWIGHIYPGDGDTNYNGKFKGKVTLTADKSSNTAYMQLSDLTPEDSAVYFCARDRGSFGAWFAYWGQGTTVTVSSGGGGSGGGGSGGGGSELVMTQTPSSLSASLGDRVTISCRASQDISNYLNWYQQKPDGTVKLLIYYTSRLHSGVPSRFSGSGSGTDYSLTISNLEQEDIATYFCQQGNRNPPTFGGGTKLEIK
